We go through one substance from patent US20260116951A1.

The target of test [1] is Human CD200R, full length, on transduced U937 cells (U937-CD200R) (human) (UniProt Q8TD46). In words: cell-based or functional assay.
Test [2] addresses Recombinant Human CD200R, His-tagged (Creative Biomart CD200R1-320H) (human) (UniProt Q8TD46). In words: SPR, CD200R flowed over immobilized CD200-Fc, 25 C, 1:1 fit. (In general: Surface plasmon resonance follows binding to a sensor surface in real time, without labels.)
Test [3] deals with Recombinant Cyno CD200R, His-tagged (Creative Biomart CD200R1-3483C) (cynomolgus monkey). Kind of test: SPR, cyno CD200R1 flowed over immobilized CD200-Fc, 25 C, 1:1 fit.
The target of test [4] is Recombinant Human CD200R, His-tagged (Creative Biomart CD200R1-320H) (human) (UniProt Q8TD46). In words: SPR (BIAcore T200), CD200-Fc captured on anti-human Fc, CD200R flowed, 25 C, 1:1 fit.
Chain of Recombinant Human CD200R, His-tagged (Creative Biomart CD200R1-320H) (human) (Q8TD46 27-266 limits assumed): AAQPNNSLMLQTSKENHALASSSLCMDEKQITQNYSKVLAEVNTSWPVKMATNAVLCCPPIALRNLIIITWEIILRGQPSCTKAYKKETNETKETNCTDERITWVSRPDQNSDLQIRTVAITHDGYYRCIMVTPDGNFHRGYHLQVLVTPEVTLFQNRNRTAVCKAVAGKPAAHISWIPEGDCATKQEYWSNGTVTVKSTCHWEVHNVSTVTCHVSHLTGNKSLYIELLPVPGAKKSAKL
Test [5] addresses Recombinant Cyno CD200R, His-tagged (Creative Biomart CD200R1-3483C) (cynomolgus monkey). In words: SPR (BIAcore T200), CD200-Fc captured on anti-human Fc, cyno CD200R flowed, 25 C, 1:1 fit.
In test [6] the target is Recombinant Human CD200R, His-tagged (Creative Biomart CD200R1-320H) (human) (UniProt Q8TD46). Kind of test: SPR (BIAcore T200), CD200-Fc captured on anti-human Fc, CD200R flowed, 25 C, 1:1 fit, mean of two runs.
For test [7] the target is unchanged. Kind of test: SPR, CD200R flowed over immobilized CD200-Fc, 25 C, 1:1 fit, mean of 2 experiments with standard deviation.
The target in test [8] is Recombinant Cyno CD200R, His-tagged (Creative Biomart CD200R1-3483C) (cynomolgus monkey). Kind of test: SPR (BIAcore T200), CD200-Fc captured on anti-human Fc, cyno CD200R flowed, 25 C, 1:1 fit, mean of two runs.
For test [9] the target is unchanged. Kind of test: SPR, cyno CD200R1 flowed over immobilized CD200-Fc, 25 C, 1:1 fit, mean of 2 experiments with standard deviation.
Test [10] addresses Recombinant Human CD200R, His-tagged (Creative Biomart CD200R1-320H) (human) (UniProt Q8TD46). In words: SPR (BIAcore), DS-155 captured (0.5 ug/mL), HuCD200R1 flowed at 500 nM to 31.25 nM, 25 C, 1:1 Binding model, run 1.
The target is the same in test [11]. In words: SPR (BIAcore), DS-155 captured (0.5 ug/mL), HuCD200R1 flowed at 500 nM to 31.25 nM, 25 C, 1:1 Binding model, run 2.
Test [12] addresses Recombinant Cyno CD200R, His-tagged (Creative Biomart CD200R1-3483C) (cynomolgus monkey). Kind of test: SPR (BIAcore), DS-155 captured (0.5 ug/mL), CynoCD200R1 flowed at 1000 nM to 62.5 nM, 25 C, 1:1 Binding model, run 1.
The target is the same in test [13]. Kind of test: SPR (BIAcore), DS-155 captured (0.5 ug/mL), CynoCD200R1 flowed at 1000 nM to 62.5 nM, 25 C, 1:1 Binding model, run 2.

Chain of Human CD200R, full length, on transduced U937 cells (U937-CD200R) (human) (Q8TD46 25-348): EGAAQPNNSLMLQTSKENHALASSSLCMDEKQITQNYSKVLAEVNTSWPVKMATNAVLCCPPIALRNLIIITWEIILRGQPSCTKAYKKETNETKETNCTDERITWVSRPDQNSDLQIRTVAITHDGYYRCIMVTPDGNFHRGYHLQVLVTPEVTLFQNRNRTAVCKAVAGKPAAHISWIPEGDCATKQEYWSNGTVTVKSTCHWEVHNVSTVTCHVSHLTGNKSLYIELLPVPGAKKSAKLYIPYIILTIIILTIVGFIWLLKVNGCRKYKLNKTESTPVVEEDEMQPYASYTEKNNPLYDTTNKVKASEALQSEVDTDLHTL

As a reminder, the t½ is the time in which the quantity being followed falls by half. A word on the Kd: it is a measure of binding affinity in units of concentration. One may read the koff as the rate constant with which the complex falls apart. The term kon denotes the rate constant with which the complex forms. In [1], “DS-155 (wild-type human CD200-Fc, IgG4 S228P Fc) (from UniProt P41217 31-232) (Fc fusion)” came in with an inhibition of LPS stimulated IL-6 release from U937-CD200R cells, IC50 of 0.18 µg/mL. For the same substance, the T1/2 was determined as 21.1 s in test [2] and 11.8 s in test [3]. The t½ in [4] came out at 21.1 s; in [5], 11.8 s. Further, the dissociation constant (Kd) worked out at 0.179 µM in [6]; 0.179 µM in test [7]; 0.971 µM in test [8]; 0.971 µM in [9]; 0.174 µM in test [10]; 0.183 µM in [11]. The results for the dissociation constant Kd in test [12] and in [13] were 0.888 µM and 1.05 µM, respectively. Further, the koff in [6] was 0.0326 s⁻¹; in test [8] it was 0.0586 s⁻¹; in test [10] it was 0.0324 s⁻¹; in [12] it was 0.0564 s⁻¹; in test [13], 0.0608 s⁻¹. Besides, the on-rate constant (kon) in [6] came to 183000 M⁻¹ s⁻¹; in [8], 60600 M⁻¹ s⁻¹; in [10], 186000 M⁻¹ s⁻¹; in test [11] it was 180000 M⁻¹ s⁻¹; in test [12], 63500 M⁻¹ s⁻¹; in [13], 57600 M⁻¹ s⁻¹.
